± gives the uncertainty stated by the source.

The data set can be described thus: amyloid nucleation score (Sup35N fusion, yeast selection) (log enrichment); library NNK1; higher = more nucleation; inactive = no reads after selection. The essentials:
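The nucleation score equals the log enrichment of output over input reads from DiMSum, centred on the mode score of non-aggregating sequences. It was computed only for sequences with 100 or more input reads. The reads came from Illumina sequencing of plasmid inserts from psi-negative yeast expressing Sup35N fused to peptides of 20 random codons, induced with 100 μM copper sulfate for 24 hours and grown 7 days at 30°C without adenine and uracil.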

Substance LLRVVKHCLCWNRYNDSDAG showed an amyloid nucleation score of 1.05 ± 0.34.

In turn, FLDLSGMPGSVWFDIGVSCF came in with an amyloid nucleation score of -0.716 ± 1.

FGIWIRGFRTYDECHPAHGC came in with an amyloid nucleation score of 0.434 ± 0.41.

Regarding LNRVFEDHWVLTLAVLHTSR, the amyloid nucleation score result was “inactive”.

SSFYTRFWVGSHMCFAGMPK displayed an amyloid nucleation score of 0.203 ± 1.2.

Turning to VLIWPGRRNSARSYWSSSGL, the amyloid nucleation score was 1.21 ± 0.66.

SYVVTVLHNWVWEEGDLEYE registered an amyloid nucleation score of 4.36 ± 0.11.

Take LHCYFAFDLLWIALRTTVRI: the amyloid nucleation score was -0.457 ± 1.

For QLRHLHSNVLLRDIWLGFKF, the amyloid nucleation score is -1.01 ± 1.7.

PWYTSLEIKRSEETCKAMPF yielded an amyloid nucleation score of 0.302 ± 0.41.

On to VSLCVSFFFYRSAVITVYAH, for which the amyloid nucleation score was determined as 0.282 ± 0.58.

LLWNDCGFLRWASGH returned an amyloid nucleation score of 2.59 ± 0.11.

Regarding LYQCRNDCCYDWMLWYTWRS, the amyloid nucleation score came out at 0.505 ± 0.34.

As to RFMYAISSVTRYPMWPGMMQ, the amyloid nucleation score came to 2.45 ± 0.18.

The substance HHVAVSLDANLNFFTLWLER had an amyloid nucleation score of 3.81 ± 0.12.

As for SFKWVVRVWRCRILWNSGVS, the amyloid nucleation score is 0.001 ± 0.78.

EFDFK came in with an amyloid nucleation score of -0.716 ± 0.74.

Take GKYKTFKNNITP: the amyloid nucleation score was -0.416 ± 1.2.

FDIFVDLFFMGALSMRPAAQ registered an amyloid nucleation score of -0.241 ± 1.1.

FLRSIKWVTVVS showed an amyloid nucleation score of 0.51 ± 0.28.

Substance SSSSYNSR registered an amyloid nucleation score of 0.97 ± 0.62.

On to MRPVGTRFSSIP, for which the amyloid nucleation score is -0.201 ± 0.55.

LKRMFFSNVLFFGSMIAGNR yielded an amyloid nucleation score of 0.162 ± 0.59.

IVLPVCDIITEAVLSCNSPG displayed an amyloid nucleation score of 0.318 ± 0.33.

On to SRMWMFFDCIISIINMAEDT, for which the amyloid nucleation score stood at 7.449 ± 0.051.

Take LMLVHRVF: the amyloid nucleation score is -0.034 ± 0.51.

Take RFWSIDRCAWSLMGGILRYG: the amyloid nucleation score is -0.01 ± 0.43.

In the case of TDIVVCSCDGFWKYSYIGGL, the amyloid nucleation score was 2.18 ± 0.12.

The substance DLIGFSWGTIEWLRA registered an amyloid nucleation score of -0.931 ± 0.64.

Consider SVVCVVSCYKIGAWLRAGG, for which the amyloid nucleation score was 0.648 ± 0.52.

ISGGLTGKWVFVLGDWWVMF: the amyloid nucleation score is -0.206 ± 0.74.

In turn, SRPDVLYCDIFHFRHQILSF gave an amyloid nucleation score of -0.173 ± 0.75.

In the case of SINSRKSFMFIF, the amyloid nucleation score was 2.39 ± 0.16.

Consider LLIRLLGQ, for which the amyloid nucleation score entry was “inactive”.

As to APVSIKCRFL, the amyloid nucleation score was 0.357 ± 0.55.

For SSFLFSFWGAIGSIKSTFFW, the amyloid nucleation score was -0.054 ± 0.24.

The substance ANIYGWDDPYFEQL had an amyloid nucleation score of 0.045 ± 0.75.

Substance LFSWFWNEI registered an amyloid nucleation score of 0.658 ± 0.72.

For GVIYS, the amyloid nucleation score is 0.077 ± 0.28.

GYGSHNEAGKLGVGGEVCYG showed an amyloid nucleation score of 3.85 ± 0.065.

The substance DIIVFSVLFLVTLDGDLWC registered an amyloid nucleation score of 0.476 ± 0.97.

Substance IFRFSNFR yielded an amyloid nucleation score of 5.822 ± 0.054.

The substance RVYISMM registered an amyloid nucleation score of -1.41 ± 1.7.

In turn, EVAFRVTCCSCWLISRNVGR yielded an amyloid nucleation score of 2.77 ± 0.15.

GHLCSLSSGFN gave an amyloid nucleation score of 0.69 ± 0.24.

The substance FYFRPNDQSWYVTRLFLSPA came in with an amyloid nucleation score of 0.491 ± 0.93.

KGWKTVVHCRDYGQVNNFGS returned an amyloid nucleation score of 2.22 ± 0.14.

Turning to MFTYDGRVEWVLA, the amyloid nucleation score was -0.133 ± 0.45.

The substance PSILTVCLRV showed an amyloid nucleation score of 0.188 ± 0.41.

With HGALMNNWDLKACFC, the amyloid nucleation score was -0.786 ± 0.41.

As for MSIVCFCW, the amyloid nucleation score is 8.155 ± 0.047.

As to RVYILFRHLVYSGGKFSVFI, the amyloid nucleation score entry was “inactive”.

The substance TFSTGRACLNEVRNVGMFKM returned an amyloid nucleation score of 0.75 ± 0.54.

Consider GIVCYKCSVDFLLSWLSVVF, for which the amyloid nucleation score is -0.092 ± 0.31.

The substance FKGRNSFPLLDSWVIHRIGI returned an amyloid nucleation score of 0.422 ± 0.9.

In the case of IGCGGVPKNQCWGPERFLEW, the amyloid nucleation score was -0.132 ± 0.57.

Take FPRLGCARTFSDHSMLACTI: the amyloid nucleation score was 0.098 ± 0.59.

In the case of GYWPNKRWSRMKPIYPHSNV, the amyloid nucleation score was determined as 1.34 ± 0.18.

For RYAISYNLRVVGLISMYRNT, the amyloid nucleation score was 0.655 ± 0.29.

LPCKIKKWIHWEFRSEFN showed an amyloid nucleation score of -2.06 ± 2.7.

MALLARFRGAFLVCSGFIAC came in with an amyloid nucleation score of -1.56 ± 2.4.

ECRMYLLTLVARRSRNPDNC yielded an amyloid nucleation score of 1.03 ± 0.61.

In turn, MDLGRMSSGFMRSNMNKKVR registered an amyloid nucleation score of 0.519 ± 0.4.

As for FIWSVTYSGP, the amyloid nucleation score is 1.48 ± 0.72.

For PRRSY, the amyloid nucleation score came to 1.41 ± 0.84.

As for EVILFNGLRMRAVPETWAST, the amyloid nucleation score stood at 0.587 ± 0.4.

In the case of GTHEVLCNDHPCVYRHILRC, the amyloid nucleation score was -0.753 ± 0.3.

The substance IDYRIDCVCFLCSVREEAYR returned an amyloid nucleation score of 7.278 ± 0.047.

Substance YRWSLTLNLL yielded an amyloid nucleation score of -0.651 ± 0.47.

In turn, MERPGNCVGWRRCPLHVTNG had an amyloid nucleation score of -0.292 ± 1.2.

Regarding YINLDHCRMSSSTA, the amyloid nucleation score is 0.85 ± 0.65.

Turning to YLCLAECSLSPYNTTLVGGV, the amyloid nucleation score is -1.6 ± 0.81.

The substance KTSVL registered an amyloid nucleation score of -0.616 ± 0.39.

NLSFLK returned an amyloid nucleation score of -0.313 ± 1.3.

For KVLMTAGFYVVLRALKHRTK, the amyloid nucleation score worked out at 1.51 ± 0.34.

YHIGTVVIPWLKVNRIYRGI: the amyloid nucleation score was 4.96 ± 0.081.

As for NSSPNKCFAGSQGSFISFWD, the amyloid nucleation score was -0.599 ± 0.62.

For the substance GPSRRTLRGNFNHLVTYWCP, the amyloid nucleation score amounted to 0.003 ± 0.46.

Regarding LDDLPTILGVSEHSRSFVKV, the amyloid nucleation score was -0.324 ± 0.61.

PVVPCYPRLKVCTGRRTAGA had an amyloid nucleation score of 0.684 ± 0.55.

The substance KIFDMRVESVYWVGRSPSKV yielded an amyloid nucleation score of 0.706 ± 0.17.

CMYTEACNWWGKYNCVGRQL showed an amyloid nucleation score of 0.235 ± 0.32.

Take VNNIVRSICGIKGEVRFLCG: the amyloid nucleation score was 0.094 ± 1.2.

Turning to RIWLTFTSFIYDNVDRILVQ, the amyloid nucleation score was -0.2 ± 0.67.

With LAMPLFPLQDGSW, the amyloid nucleation score entry is “inactive”.

The substance RIWPQIVCDIDIRP displayed an amyloid nucleation score of -0.444 ± 0.52.

For the substance CDVLELFKNTVGSFGGIVVS, the amyloid nucleation score was determined as 0.204 ± 0.79.

Take CSDSNIPLHNHSWGTSVVDN: the amyloid nucleation score was 1.31 ± 0.63.

Turning to VRNVG, the amyloid nucleation score was -0.14 ± 0.59.

On to CWGLRLLSFVRRLV, for which the amyloid nucleation score was determined as 0.749 ± 1.

SRGPRFDCPMLVTVPSTSLE displayed an amyloid nucleation score of -1.1 ± 2.4.

Regarding SYNFWLRMAGRCSKM, the amyloid nucleation score was -0.618 ± 0.6.

GFFLI gave an amyloid nucleation score of -0.007 ± 0.21.

The substance NTQNRSEVNQGVVGQVR registered an amyloid nucleation score of -0.378 ± 0.36.

VEGALGYGCASC came in with an amyloid nucleation score of 0.768 ± 0.65.

GRGSMLFW: the amyloid nucleation score was 0.942 ± 0.58.

RTPHVERGTGIGLEISSTEV yielded an amyloid nucleation score of 0.041 ± 0.97.

Regarding VISIGIGMDTTTRVGQMYMK, the amyloid nucleation score was -0.115 ± 1.4.

LYRSLLN had an amyloid nucleation score of -0.23 ± 1.1.

Substance GSLKEMEKHPWKKATTYQYA showed an amyloid nucleation score of 1.47 ± 0.23.

Substance TRLSRERINRDWEREGCLTP came in with an amyloid nucleation score of 0.798 ± 0.81.

NNYVYLSLSFPVGTVC showed an amyloid nucleation score of -0.377 ± 0.61.

Substance VICFWTLSRFYRGRD registered an amyloid nucleation score of -1.13 ± 0.62.

With RVNIV, the amyloid nucleation score was -0.624 ± 0.48.

YKVSKMNRRDTNGNLVNRRV returned an amyloid nucleation score of -0.211 ± 1.2.

In the case of FSLLYV, the amyloid nucleation score was 0.321 ± 0.67.

In turn, GYNVAFILHTTVKCVCVEM had an amyloid nucleation score of 0.757 ± 0.41.

LIFSNNWFYYTFYDS registered an amyloid nucleation score of 5.85 ± 0.087.

Turning to HRFSCG, the amyloid nucleation score entry is “inactive”.

As to TAGRVITSCWQVLILLVNCG, the amyloid nucleation score is -0.605 ± 0.54.

Consider ANSSF, for which the amyloid nucleation score was -0.126 ± 0.54.

Take LLSATFLLMSTCY: the amyloid nucleation score worked out at 0.34 ± 0.29.

Take ARYSRRRKVMSLLVTGEMDA: the amyloid nucleation score was -0.038 ± 0.44.

The substance KHCDYHRWVEITSKRLFIGG showed an amyloid nucleation score of 0.134 ± 0.3.

Regarding LTVVTAAFRATMVEHIL, the amyloid nucleation score was -0.368 ± 0.4.

Regarding ILNFRERL, the amyloid nucleation score is -1.06 ± 0.43.

For the substance SDYMCTKSSIKLNTYIDVKD, the amyloid nucleation score was -1.6 ± 2.1.

For the substance FIVFISFSFWRVTGIR, the amyloid nucleation score is -0.139 ± 0.59.

As to NTISMFDMLQISKTSQHQFA, the amyloid nucleation score was found to be 0.387 ± 0.45.

ALSSWLLFGSTCQDSDCFKD had an amyloid nucleation score of 1.16 ± 0.76.

NLLHESCRVLYS came in with an amyloid nucleation score of 0.398 ± 0.5.

SKKIVGIFYKVCSRRLFMVC came in with an amyloid nucleation score of 0.456 ± 0.6.

For the substance TWNRRVRVYTGYCPNVGMSL, the amyloid nucleation score stood at 4.94 ± 0.059.

On to MYLVDASMSKPLIVLKSCN, for which the amyloid nucleation score was 0.686 ± 1.1.

On to MCSERMGFFIVSGVVLKLTH, for which the amyloid nucleation score amounted to 0.814 ± 0.57.

With SHMMHSMAEVSFARYWDKQS, the amyloid nucleation score was -2.46 ± 1.9.

In the case of ECRGQLSDKIVQYNRPEVYW, the amyloid nucleation score is -0.199 ± 0.28.

As to VSCRR, the amyloid nucleation score entry is “inactive”.

For LAVRESIVQDKTWQDYE, the amyloid nucleation score was -0.102 ± 0.18.

In turn, LLSGNGQRLSSEQTCRELVG had an amyloid nucleation score of -0.727 ± 0.28.

The substance PYHIKLLQR yielded an amyloid nucleation score of 1.44 ± 0.18.

Substance PLTGAGFTIEML yielded an amyloid nucleation score of -0.132 ± 0.36.

In turn, FPCSRIELVVSVCVAWVNSC displayed an amyloid nucleation score of 1.42 ± 0.28.

YSWLVYNHNSDPGGSVCWSC gave an amyloid nucleation score of 5.61 ± 0.065.

MIGNRY came in with an amyloid nucleation score of 0.091 ± 0.26.

As for DNTGQVRIW, the amyloid nucleation score was -0.562 ± 0.62.

For TILVNKRR, the amyloid nucleation score was -1.28 ± 0.65.

The substance VYSRSWPGFLKWLLASIFF came in with an amyloid nucleation score of 0.694 ± 1.2.

Consider IWMLELSGFMKMVQGGHQVG, for which the amyloid nucleation score was 3.06 ± 0.14.

As for YSVLTFADLYMVSMS, the amyloid nucleation score result was “inactive”.

In turn, TIVLLNCISIRLSIRFMFIP came in with an amyloid nucleation score of -0.251 ± 1.

FCSNPAGWSSWSPE registered an amyloid nucleation score of 0.182 ± 0.9.
